# Laboratory results taken from patent US6730828B1, “Isolated nucleic acids encoding a wheat glutathione transferase, plants transformed therewith and methods of use thereof” (Aventis Agriculture Limited, priority 1997, dated 2004).
# B1: TA 27: recombinant wheat GST from cloquintocet-mexyl-induced cDNA, SEQ ID No. 13, amino acid SEQ ID No. 14, expressed from pET 11a (protein)
# chain: MEPMKVYGWAVSPWMARVLVSLEEAGADYELVPMSRNGGDHRRPEHLARNPFGEIPVLEYGGLTLYQSRAIARHILRKHKPGLLGAGSLEESAMVDVWVDVDAHHLEPVLKPIVWNCIINPFVGRDVDQGLVDESVEKLKKLLEVYEARLSSNKYLAGDFVSFADLTHFSFMRYFMATEHAVVLDAYPHVKAWWKALLARPSVKKVIAGMPPDFGFGSGRIP
# modifications: Triticum aestivum L.
# B2: ICC/V/P: recombinant type III wheat GST; clones ICC, ICP and ICV with identical sequence, SEQ ID No. 17, amino acid SEQ ID No. 18 (protein)
# chain: MAGGEELKLLGWWAPGVSPYVLRAQMALAVKGLSYDYLPEDRWSTSDLLIASNPVYKKVPVLIHNGRPVCESLLILEYLDDAVGLAGNGKPILPADPYSRAVARFWAAYVNDKLFPSCTGILKTTKQEERAGKMEETLSGLRHLEAVMAECSEGEAEAPFFGGDAIGFLDIALGCYLPWFEAAGRLAGLGPIIDPARTPKLAAWAERFSVAEPIKALLPGVDKLEEYITTALYPKWNIAVTGN
# modifications: Triticum aestivum L.
# B3: ICR: recombinant safener-inducible type III wheat GST clone, SEQ ID No. 15, amino acid SEQ ID No. 16 (protein)
# chain: MAGDGELKLLGVWTSPFVIRVRVVLNLKSLPYEYVEESLGSKSALLLGSNPVHQSVPVLLHGGRPVNESQVIVQYIDEVWAGAGPSVLPADPYERATARFWAAYVDDKVGSAWTGMLFSCKTEEERAEAVSRAVAALETLEGAFAECSKGKAFFGGDAIGFVDVVLGGYLGWFGAIDKIIGRRLIDPARTPLLARWEERFRAADAAKGVVPDDADKMLEFLPTVLAWIAGKAK
# modifications: Triticum aestivum L.
# B4: TaGST1-1: wheat GST isoenzyme purified from safener-treated shoots, homodimer of 25 kDa TaGST1 subunits (SEQ ID No. 2/SEQ ID No. 2) (protein)
# chain 1: MAGEKGLVLLDFWVSPFGQRVRIALAEKGLPYEYAEEDLMAGKSDRLLRANPVHKKIPVLLHDGRAVNESLIILQYLEEAFPDAPALLPSDPYARAQARFWADYVDKKVYDCGSRLWKLKGEPQAQARAEMLDILKTLDGALGDKPFFGGDKFGFVDAAFAPFTAWFHSYERYGEFSLPEVAPKIAAWAKRCGERESVAKSLYSPDKVYDFIGLLKKKYGIE
# chain 2: B4 chain 1
# modifications: homodimer; Triticum aestivum L.
# How the values were obtained:
# [1] = Glutathione peroxidase activity toward cumene hydroperoxide; assay type: biochemical
# Method: (§1) To assay the recombinant fusion proteins for GST activity, the E. coli were grown in the presence of IPTG and then pelleted by centrifugation. The bacteria were then lysed by sonication and the protein precipitated using 80% ammonium sulphate. After resuspension and desalting, GSTs were purified by affinity chromatography. The WIC 3 fusion protein was purified using sulphobromophthalein-S-glutathione affinity chromatography (Mozer et al. Biochem. 22, 1983, 1068-1072) while the other WIC fusion proteins were purified using glutathione-agarose (Mannervik and Guthenberg. Methods Enzymol. 77 1981, 231-235).The purified enzymes were then assayed for GST activities toward herbicides (Table 3) and GST activities toward non-herbicide substrates and glutathione peroxidase activities toward organic hydroperoxides (Table 4).
# (§2) A polyclonal antiserum was raised in a rabbit to a mixture of TaGST1-2 and TaGST1-3. When tested against crude extracts from safener-treated wheat shoots the antiserum recognised both the 25 kDa TaGST1 subunit and the 26 kDa safener-inducible TaGST2 and TaGST3 subunits. The antiserum was then used in conjunction with the antiserum raised to TaGST1-1 to immuno screen the cDNA library prepared from fenchlorazole ethyl treated wheat shoots as described in example 1. Duplicate lifts were taken from the plated out library and the first blot screened with the antiserum raised against TaGST1-2 and TaGST1-3. The second blot was screened with the antiserum raised to TaGST1-1. Five plaques were identified from the first blot which were absent from the second blot corresponding to cDNAs encoding TaGST2 or TaGST3 like polypeptides and theses clones were purified and the respective plasmids sequenced. […] The other three clones ICC. ICP and ICV had identical DNA sequences (SEQ ID No. 17) and predicted amino acid sequence (SEQ ID No. 18). GST ICJ was sub-cloned into the pET 11a vector after using PCR to introduce a Nde 1 restriction site into the translation start site, using the primer 5′ AGGTAGTTACATATGGCCGGAGGA 3′ (SEQ ID No. 19) in the amplification. following sub-cloning, the sequence of GST ICJ was re-checked to ensure no PCR induced errors had been introduced. The recombinant GST ICJ was then expressed in E. coli and purified by S-hexylglutathione affinity chromatography. The purified GST ICJ was assayed for activities as a GST (Table 3) and as a glutathione peroxidase (Table 4). […] GST ICV was finally expressed as the respective beta-galactosidase fusion protein using the Bluescript plasmid and assayed for GST activity (Table 3 ) and glutathione peroxidase activity (Table 4) in crude bacterial lysates. The specific activity of GST ICV toward these substrates was then calculated by I) subtracting the low levels of GST and GPOX activity present due the endogenous activities in the E. coli and ii) determining the proportion of protein in the lysate present as recombinant GST ICV from SDS-PAGE analysis, by densitometry analysis of polypeptides stained with Coomassie blue.
# GST activity toward CDNB = assay type: biochemical
# Method: (§3) The purified isoenzymes were assayed for GST activity toward herbicides using the HPLC-based assays described by Edwards R. and Cole D. J. (Pesticide Biochemistry and Physiology Vol. 54, pp96-104 (1996)) and the results are presented in Table 2. […] These isoenzymes had additional activities as glutathione peroxidases able to reduce linoleic acid hydroperoxide, a major reaction product formed during membrane peroxidation in plants (Williamson and Beverly. J. Cereal Sci. 8, 1988, 155-163).
# To confirm that TaGST1 encoded a GST, it was expressed as a fusion protein with beta-galactosidase using the pBluescript plasmid in E. coli strain SOLR. TaGST1 clones were inoculated into LB liquid medium and were grown overnight at 37/C on all orbital shaker in the presence of IPTG. Bacteria were then pelleted by centrifugation, lysed by sonication and assayed for GST activity toward CDNB and analysed by SDS-PAGE and Western blotting using the anti-TaGSTI-I serum. With all six TaGST1 clones, GST activity toward CDNB could be determined in the crude extracts in the range 30-50 nkat/mg crude lysate.
# as §1
# as §2, with “The specific activity of GST ICV toward these substrates was then calculated by I) subtracting the low levels of GST and GPOX activity present due the endogenous activities in the E. coli and ii) determining the proportion of protein in the lysate present as recombinant GST ICV from SDS-PAGE analysis, by densitometry analysis of polypeptides stained with Coomassie blue.” left out
# [2] = GST activity toward herbicide fluorodifen (HPLC-based assay); assay type: biochemical
# Method: as §3, §1, §2
# [3] = GST activity toward herbicide fenoxaprop-ethyl (HPLC-based assay); assay type: biochemical
# Method: as §3, §1, §2
# [4] = GST activity toward herbicide metolachlor (HPLC-based assay); assay type: biochemical
# Method: as §3, §1, §2
# wheat shoots = test: Enhancement of GST isoenzyme expression in wheat shoots by safener fenchlorazole-ethyl; assay type: in vivo, Triticum aestivum L. var. Hunter
# Method: Wheat seeds (Triticum aestivum L. var. Hunter) were imbibed in a 10 mg/l solution of the herbicide safener fenchlorazole-ethyl and then grown in an environmental growth room with further root-applied watering treatments of 5 mg/l fenchlorazole ethyl applied as required. At 10 days after imbibing, the shoot tissue was harvested and extracted prior to precipitation of the protein with ammonium sulphate (80% saturation). The total protein extract was then applied in the presence of 1 M ammonium sulphate to a phenyl-Sepharose column. The bound GSTs were then recovered, firstly by reducing the ammonium sulphate concentration to 0 M to yield the polar GST fraction, which represented 61% of the recovered activity toward 1-chloro-2,4-dinitrobenzene (CDNB). The remaining 39% of the GST activity was then recovered by adding ethylene glycol (50% v/v) to the running buffer to yield the hydrophobic GST fraction. […] The component polypeptides in the active fractions were then analysed by silver staining after resolution by sodium dodecyl sulphate polyacrylamide gel electrophoresis (SDS-PAGE). It was concluded that in fenchlorazole-ethyl-treated wheat the polar GSTs were composed of 25 kDa and 26 kDa polypeptides, while the hydrophobic fraction contained 25 kDa, 26 kDa and 24 kDa polypeptides. Further analysis by reversed-phase HPLC confirmed the subunit compositions (FIG. 2). Based on the combined analyses by Q-sepharose, HPLC and SDS-PAGE these GST polypeptides were named as described in Table 1, which also contains details of how these subunits associate together to form the active dimers found in plants and the relative abundance of these subunits in extracts from unsafened and fenchlorazole-ethyl treated ([…]) plants.
# [5] = recombinant wheat GST expressed in E. coli, affinity purified
# [6] = recombinant wheat GST expressed in E. coli, affinity purified, ± standard error
# [7] = beta-galactosidase fusion in crude bacterial lysates, E. coli background subtracted, corrected for proportion of recombinant protein
# [8] = isoenzymes purified from fenchlorazole-ethyl-treated wheat shoots
molecule,measurement,setting,value
B1,Glutathione peroxidase activity toward cumene hydroperoxide,"[1]; recombinant wheat GST, affinity purified, ± standard error (n = 3)",3.6 ± 0.4 absorbance change at 340 nm.mg^−1
same,GST activity toward CDNB,GST activity toward CDNB; [5],237 nkat.mg^−1
same,GST activity toward fluorodifen,[2]; [6],0.034 ± 0.003 nkat.mg^−1
same,GST activity toward fenoxaprop-ethyl,[3]; [6],0.036 ± 0.004 nkat.mg^−1
same,GST activity toward metolachlor,[4]; [6],0.063 ± 0.006 nkat.mg^−1
B2,Glutathione peroxidase activity toward cumene hydroperoxide,[1]; [7],0.84 ± 0.04 absorbance change at 340 nm.mg^−1
same,GST activity toward CDNB,GST activity toward CDNB; [7],30 nkat.mg^−1
same,GST activity toward fluorodifen,[2]; [7],0.000 ± 0.000 nkat.mg^−1
same,GST activity toward fenoxaprop-ethyl,[3]; [7],0.074 ± 0.008 nkat.mg^−1
same,GST activity toward metolachlor,[4]; [7],0.000 ± 0.000 nkat.mg^−1
B3,GST activity toward CDNB,GST activity toward CDNB; [5],8139 nkat.mg^−1
same,GST activity toward fluorodifen,[2]; [6],0.037 ± 0.002 nkat.mg^−1
same,GST activity toward fenoxaprop-ethyl,[3]; [6],0.028 ± 0.001 nkat.mg^−1
same,GST activity toward metolachlor,[4]; [6],0.000 ± 0.000 nkat.mg^−1
B4,GST activity toward CDNB,GST activity toward CDNB; [8],"1,528 nkat.mg^−1"
same,GST activity toward fluorodifen,[2]; [8],0.97 nkat.mg^−1
same,% enhancement by safener,wheat shoots; fenchlorazole-ethyl treated (safened) versus unsafened wheat shoots,30-50%
same,Increase in expression following exposure to fenchlorazole-ethyl,wheat shoots; leaves of wheat seedlings,approximately 50%
same,GST activity toward fenoxaprop-ethyl,[3]; [8],0 nkat.mg^−1
same,GST activity toward metolachlor,[4]; [8],0.11 nkat.mg^−1
